The target of data set [1] is T1, 6His-PABPC1(1–190) (human, UniProt P11940 1-190).
T1 construct: PABPC1, human, RRM domains 1 and 2, amino acids 1-190; also called 6His-tagged PABPC1 RRM domains 1 and 2; first two RRMs of PABPC1; source: E. coli BL21-CodonPlus; co-expressed, in lysate (pull-down); purified (HisTrap FF crude, Superdex 75)
Description: AUC; analytical ultracentrifugation of BTG2(APRO) (GST removed) and 6His-PABPC1(1–190), both purified to homogeneity; no RNA (Supplementary Fig. 2). The conditions noted are these: both partners purified.

The target of data set [2] is 6His-PABPC1(FL) (human, UniProt P11940 1-636). Description: EMSA; 100 nM RNA; complete shift at 7 pmol protein per 1 pmol RNA; multiple PABPC1 molecules bound; EMSA: 100 nM 5'-fluorescein RNA, native PAGE; EMSA buffer not in the material (deadenylation assays: 20 mM HEPES-KOH pH 8.0, 100 mM KCl, 0.5 mM DTT, 0.1% Igepal). A general note: A gel shift assay detects complexes by their altered migration in electrophoresis.
Chain of 6His-PABPC1(FL) (P11940 whole entry): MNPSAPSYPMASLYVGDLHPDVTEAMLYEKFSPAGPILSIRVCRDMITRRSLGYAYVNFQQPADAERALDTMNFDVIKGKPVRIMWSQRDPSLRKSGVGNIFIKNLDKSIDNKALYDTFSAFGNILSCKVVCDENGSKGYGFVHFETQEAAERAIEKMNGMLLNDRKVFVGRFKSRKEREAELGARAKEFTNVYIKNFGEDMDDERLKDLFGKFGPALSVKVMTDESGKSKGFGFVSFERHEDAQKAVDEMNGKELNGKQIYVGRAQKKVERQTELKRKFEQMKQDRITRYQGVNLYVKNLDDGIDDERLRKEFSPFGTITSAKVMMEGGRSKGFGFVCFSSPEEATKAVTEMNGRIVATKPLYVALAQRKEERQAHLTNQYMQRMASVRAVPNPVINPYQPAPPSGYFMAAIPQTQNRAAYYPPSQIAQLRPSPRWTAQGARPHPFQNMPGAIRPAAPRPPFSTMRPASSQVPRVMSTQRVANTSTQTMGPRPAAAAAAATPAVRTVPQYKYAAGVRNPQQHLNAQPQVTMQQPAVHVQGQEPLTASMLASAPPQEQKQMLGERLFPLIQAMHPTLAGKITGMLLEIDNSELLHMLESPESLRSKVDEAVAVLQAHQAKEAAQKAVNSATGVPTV

In data set [3] the target is 6His-PABPC1(1-190) (human, UniProt P11940 1-190). Description: EMSA; 100 nM RNA; complete shift at 7 pmol protein per 1 pmol RNA; EMSA: 100 nM 5'-fluorescein RNA, native PAGE; EMSA buffer not in the material (deadenylation assays: 20 mM HEPES-KOH pH 8.0, 100 mM KCl, 0.5 mM DTT, 0.1% Igepal).
Chain of 6His-PABPC1(1-190) (P11940 1-190): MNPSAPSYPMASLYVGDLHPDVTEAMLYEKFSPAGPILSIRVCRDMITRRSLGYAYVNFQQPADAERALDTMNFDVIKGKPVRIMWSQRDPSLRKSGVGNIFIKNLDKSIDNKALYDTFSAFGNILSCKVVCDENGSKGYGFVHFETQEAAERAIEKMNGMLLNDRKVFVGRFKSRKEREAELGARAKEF

T1 sequence (P11940 1-190): as above

B1: BTG2(APRO) (domain or fragment, human, UniProt P78543 1-126, looked up)
chain: MSHGKGTDMLPEIAAAVGFLSSLLRTRGCVSEQRLKVFSGALQEALTEHYKHHWFPEKPSKGSGYRCIRINHKMDPIISRVASQIGLSQPQLHQLLPSELTLWVDPYEVSYRIGEDGSICVLYEEA
notes: BTG2, human, APRO domain; also called BTG2 APRO domain, GST removed; source: E. coli BL21-CodonPlus, purified (GSTrap FF, thrombin cleavage, Superdex 75)
In the case of B1, in data set [1], the dissociation constant (Kd) (commonly the concentration at which binding is half-saturated) was approximately 5 µM and the stoichiometry N (in general, a count of units in the complex or per binding partner) is 1.

B2: 5'Fluo-poly(A)75 (ssRNA)
RNA: AAAAAAAAAAAAAAAAAAAAAAAAAAAAAAAAAAAAAAAAAAAAAAAAAAAAAAAAAAAAAAAAAAAAAAAAAAA
Turning to B2, the binding result in data set [2] and in data set [3] was “binds” throughout.

The values are drawn from article PMC4773420 (Nature Communications, 2016).
